{
  "source": "paper PMC7054171",
  "molecular_target": "GST tagged Cdc42 Q61L (human) (UniProt P60953)",
  "sequence (P60953 whole entry Q61L)": "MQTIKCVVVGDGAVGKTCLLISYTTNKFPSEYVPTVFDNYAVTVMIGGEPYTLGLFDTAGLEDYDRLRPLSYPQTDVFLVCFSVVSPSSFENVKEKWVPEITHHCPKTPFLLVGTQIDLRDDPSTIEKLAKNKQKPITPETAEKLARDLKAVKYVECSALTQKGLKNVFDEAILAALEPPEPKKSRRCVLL",
  "assay": "pull-down",
  "data": [
    {"substance": "mVenus-Z-lock-WASP dark (zDK2-GS0-CBD-LOV2, dark state variant) (from UniProt P42768 230-288; O49003 404-546) (designed binder)", "values": [
      {"measurement": "fold reduction in binding against the lit state variant", "result": "> 5", "unit": "fold"}
    ]}
  ]
}
